Target: Rpn10 proteasome subunit C-terminally fused with Fpr1 (strain Rpn10-FPR1) (S. cerevisiae) (UniProt P38886)
Assay: cell-based or functional assay

Sequence of Rpn10 proteasome subunit C-terminally fused with Fpr1 (strain Rpn10-FPR1) (S. cerevisiae) (P38886 other isoform, or with tags, fused parts or gaps): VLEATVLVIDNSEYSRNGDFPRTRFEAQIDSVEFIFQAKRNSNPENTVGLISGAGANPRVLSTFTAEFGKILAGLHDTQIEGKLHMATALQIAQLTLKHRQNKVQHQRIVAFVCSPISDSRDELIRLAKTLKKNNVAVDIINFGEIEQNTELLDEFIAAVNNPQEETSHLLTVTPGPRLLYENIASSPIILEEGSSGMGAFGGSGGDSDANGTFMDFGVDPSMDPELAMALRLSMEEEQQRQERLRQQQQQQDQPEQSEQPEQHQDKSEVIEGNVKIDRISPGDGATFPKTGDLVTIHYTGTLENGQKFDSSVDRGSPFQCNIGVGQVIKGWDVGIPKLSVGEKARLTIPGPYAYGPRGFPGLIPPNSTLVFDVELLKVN

half-life of reporter degradation in vitro with purified proteasomes and rapamycin (anti-HA Western): 15 min
Substance: HA epitope-tagged Tor-His3 purified from a bacterial expression system (PROTet.e133-TOR-link-HIS3HA) (from UniProt P35169 1883-2078; P06633 1-220)

Reference: patent publication US20050152888A1
